Measured values from patent publication US20040146507A1 (Genentech, published 2004).
Like-named read-outs stand apart in the source and are kept apart here.

Tests used:
human CD11a [1] = target: T1, human CD11a (human, UniProt P20701 26-1170); experiment: cell-based or functional assay
human CD11a [2] = target: T1, human CD11a; experiment: saturation binding, 125I-antibody, human lymphocytes; Kd(app)
Protocol: (§1) Radiolabeled antibodies were prepared using Iodo-Gen (Pierce, Rockford, Ill.) according to the manufacturer's instructions. 50 μg of antibody and 1 mCi¹²⁵I (DuPont, Wilmington, Del.) were added to each tube and incubated for 15 min at 25° C. Radiolabeled proteins were purified from the remaining free ¹²⁵I using PD-10 columns (Pharmacia, Uppsala, Sweden) equilibrated in Hank's Balanced Salt Solution (HBSS, Life Technologies, Grand Island, N.Y.) containing 0.2% gelatin.
(§2) Antibody affinities were determined by saturation binding using either peripheral blood mononuclear cells (murine MHM24 and HuIgG1) or rhesus leukocytes (MHM23, RhIgG1). In each assay, a radiolabeled antibody was serially diluted in HBSS-0.2% gelatin in quadruplicate. Nonspecific binding was determined by the addition of 500 nM final concentration of homologous unlabeled antibody in duplicate through the serial dilution. Human lymphocytes or rhesus leukocytes were added to the plates in a volume of 170 μl per well. Plates were incubated for 2 hr at room temperature on an orbital plate shaker. After incubation, cells were harvested using a SKATRON™ cell harvester (Lier, Norway) and washed 10 times with PBS containing 0.25% gelatin and 0.1% sodium azide. Samples were then counted for 1 min in an LBK Wallac GammaMaster gamma counter (Gaithersburg, Md.). […]

human CD11a [3] = target: T1, human CD11a; experiment: saturation binding, human lymphocytes, donor 1; Kd(app)
Protocol: as §1, §2

human CD11a [4] = target: T1, human CD11a; experiment: saturation binding, human lymphocytes, donor 2; Kd(app)
Protocol: as §1, §2

rhesus CD11a [5] = target: T2, rhesus CD11a (rhesus, UniProt H9Z8N3 26-1169); experiment: binding to rhesus CD11a compared with human CD11a
T2 construct: whole, on cells; On rhesus peripheral blood lymphocytes or leukocytes; also called rhCD11a
T2 sequence: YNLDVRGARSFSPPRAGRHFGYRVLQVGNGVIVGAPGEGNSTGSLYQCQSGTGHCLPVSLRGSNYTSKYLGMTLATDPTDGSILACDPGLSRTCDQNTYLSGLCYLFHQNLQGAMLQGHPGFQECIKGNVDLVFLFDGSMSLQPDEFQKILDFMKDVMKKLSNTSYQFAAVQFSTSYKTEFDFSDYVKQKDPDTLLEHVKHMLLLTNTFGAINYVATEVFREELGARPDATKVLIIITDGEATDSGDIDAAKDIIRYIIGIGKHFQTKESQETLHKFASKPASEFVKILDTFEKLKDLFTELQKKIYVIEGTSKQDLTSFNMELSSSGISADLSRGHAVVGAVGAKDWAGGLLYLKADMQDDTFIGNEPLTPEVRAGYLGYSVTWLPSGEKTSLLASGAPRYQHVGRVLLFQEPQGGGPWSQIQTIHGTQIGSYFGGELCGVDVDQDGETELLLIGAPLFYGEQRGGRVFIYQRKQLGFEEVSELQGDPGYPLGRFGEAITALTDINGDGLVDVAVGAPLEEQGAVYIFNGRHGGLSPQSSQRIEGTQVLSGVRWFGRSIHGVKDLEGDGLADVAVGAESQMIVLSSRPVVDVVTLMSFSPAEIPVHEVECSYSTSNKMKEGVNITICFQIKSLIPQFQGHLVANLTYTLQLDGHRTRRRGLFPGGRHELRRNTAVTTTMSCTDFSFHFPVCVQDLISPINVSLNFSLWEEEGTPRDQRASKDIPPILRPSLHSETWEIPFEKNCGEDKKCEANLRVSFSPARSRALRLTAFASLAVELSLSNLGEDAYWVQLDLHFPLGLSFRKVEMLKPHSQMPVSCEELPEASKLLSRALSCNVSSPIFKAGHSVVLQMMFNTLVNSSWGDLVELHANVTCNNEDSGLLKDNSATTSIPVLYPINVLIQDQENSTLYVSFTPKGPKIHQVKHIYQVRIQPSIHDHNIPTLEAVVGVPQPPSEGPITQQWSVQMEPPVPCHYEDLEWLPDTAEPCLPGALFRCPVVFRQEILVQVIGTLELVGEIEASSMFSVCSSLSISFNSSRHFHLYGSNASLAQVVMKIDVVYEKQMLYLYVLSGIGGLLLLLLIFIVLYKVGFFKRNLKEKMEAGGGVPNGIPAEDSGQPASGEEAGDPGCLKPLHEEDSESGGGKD

human CD11a [6] = target: T1, human CD11a; experiment: FACScan, Jurkat cells
Protocol: (§3) Aliquots of 10⁶ Jurkat T-cells were incubated with serial dilutions of humanized and control antibodies in PBS-0.1% BSA-10 mM sodium azide for 45 min at 4° C. The cells were washed and then incubated in fluorescein-conjugated goat anti-human F(ab′)₂ (Organon Teknika, Westchester, Pa.) for 45 min at 4° C. Cells were washed and analysed on a FACScan (Becton Dickinson, Mountain View, Calif.). 8×10³ cells were acquired by list mode and gated by forward light scatter versus side light scatter, thereby excluding dead cells and debris.

rhesus CD11a [7] = target: T2, rhesus CD11a; experiment: rhesus PBL binding
human CD11a [8] = target: T1, human CD11a; experiment: FACScan, Jurkat cells; remark: listed apart in the source
Protocol: as §3
(§4) To determine which CDR residues were involved in binding to human CD11a an alanine-scan (Cunningham et al., Science 244:1081 (1989)) was performed on the CDR residues of HuIgG1. Each mutant was tested for binding to CD11a on Jurkat cells. In the light chain only CDR-L3 contributes to binding.
Target sequence in this assay (P20701 26-1170): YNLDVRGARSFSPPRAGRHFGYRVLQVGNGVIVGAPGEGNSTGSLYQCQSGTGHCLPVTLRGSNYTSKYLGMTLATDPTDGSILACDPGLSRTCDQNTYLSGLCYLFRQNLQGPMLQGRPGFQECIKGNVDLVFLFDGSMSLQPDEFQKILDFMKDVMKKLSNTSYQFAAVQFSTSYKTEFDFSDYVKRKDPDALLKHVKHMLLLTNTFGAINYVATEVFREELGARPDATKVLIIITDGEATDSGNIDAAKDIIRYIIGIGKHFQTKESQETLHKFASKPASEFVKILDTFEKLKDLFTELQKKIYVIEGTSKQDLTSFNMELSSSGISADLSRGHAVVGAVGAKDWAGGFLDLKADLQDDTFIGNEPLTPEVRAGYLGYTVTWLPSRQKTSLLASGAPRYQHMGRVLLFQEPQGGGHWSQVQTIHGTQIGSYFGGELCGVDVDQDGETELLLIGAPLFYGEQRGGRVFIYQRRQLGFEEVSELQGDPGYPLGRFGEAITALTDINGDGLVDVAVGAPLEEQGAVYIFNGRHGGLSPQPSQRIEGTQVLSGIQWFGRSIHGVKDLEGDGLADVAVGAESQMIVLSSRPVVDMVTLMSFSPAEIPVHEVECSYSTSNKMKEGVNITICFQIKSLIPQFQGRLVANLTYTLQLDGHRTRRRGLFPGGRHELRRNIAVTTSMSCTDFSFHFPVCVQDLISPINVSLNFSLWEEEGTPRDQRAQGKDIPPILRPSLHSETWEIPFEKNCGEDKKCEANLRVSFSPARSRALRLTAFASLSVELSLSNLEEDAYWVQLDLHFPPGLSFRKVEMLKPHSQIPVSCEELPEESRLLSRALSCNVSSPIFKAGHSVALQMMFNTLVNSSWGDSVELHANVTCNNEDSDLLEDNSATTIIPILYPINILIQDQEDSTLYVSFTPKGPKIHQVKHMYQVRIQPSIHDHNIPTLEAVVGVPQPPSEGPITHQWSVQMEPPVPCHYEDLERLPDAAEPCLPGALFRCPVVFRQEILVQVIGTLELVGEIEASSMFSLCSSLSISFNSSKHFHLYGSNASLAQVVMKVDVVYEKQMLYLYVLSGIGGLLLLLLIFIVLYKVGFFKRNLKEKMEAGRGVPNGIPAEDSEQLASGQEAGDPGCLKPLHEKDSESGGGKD

rhesus CD11a [9] = target: T2, rhesus CD11a; experiment: rhesus PBL binding; remark: listed apart in the source
rhesus CD11a [10] = target: T2, rhesus CD11a; experiment: rhesus PBL binding; remark: listed apart in the source
human CD11a [11] = target: T1, human CD11a; experiment: FACScan, Jurkat cells; remark: listed apart in the source
Protocol: as §3, §4

rhesus CD11a [12] = target: T2, rhesus CD11a; experiment: rhesus PBL binding; remark: listed apart in the source
rhesus CD11a [13] = target: T2, rhesus CD11a; experiment: rhesus PBL binding; end of range assigned by the printed EC50s

B1: murine MHM24 (antibody, V domains shown)
VH: EVQLQQPGAELMRPGASVKLSCKASGYSFTGHWMNWVRQRPGQGLEWIGMIHPSDSETRLNQKFKDKATLTVDKSSSSAYMQLSSPTSEDSAVYYCARGIYFYGTTYFDYWGQGTTLTVSS
VL: DVQITQSPSYLAASPGETISINCRASKTISKYLAWYQEKPGKTNKLLIYSGSTLQSGIPSRFSGSGSGTDFTLTISSLEPEDFAMYYCQQHNEYPLTFGTGTKLELKR
notes: Murine anti-human CD11a monoclonal antibody; also called muMHM24; murMHM24
IC50, blocking of cell adhesion, Jurkat: HuK (human CD11a [1]): 0.09 nM | Kd (human CD11a [2]): 0.15 nM | Kd (human CD11a [3]): 0.16 nM | Kd (human CD11a [4]): 0.13 nM | fold reduction in binding against human CD11a (rhesus CD11a [5]): ~1000 fold

B2: chimeric MHM24 IgG1 (antibody, V domains shown)
VH: EVQLQQPGAELMRPGASVKLSCKASGYSFTGHWMNWVRQRPGQGLEWIGMIHPSDSETRLNQKFKDKATLTVDKSSSSAYMQLSSPTSEDSAVYYCARGIYFYGTTYFDYWGQGTTLTVSS
VL: DVQITQSPSYLAASPGETISINCRASKTISKYLAWYQEKPGKTNKLLIYSGSTLQSGIPSRFSGSGSGTDFTLTISSLEPEDFAMYYCQQHNEYPLTFGTGTKLELKR
notes: Murine VL and VH fused to human constant light and heavy (IgG1) chains; also called chIgG1; chimeric IgG1
IC50, blocking of cell adhesion, Jurkat: HuK (human CD11a [1]): 0.1 nM | EC50 (human CD11a [6]): 5.2 ng/mL | EC50 F(ab)/EC50 F(ab)-2 (human CD11a [6]): 0.006 ratio

B3: HuIgG1 mutant AspH54Ala (antibody, V domains shown)
VH: EVQLVESGGGLVQPGGSLRLSCAASGYSFTGHWMNWVRQAPGKGLEWVGMIHPSASETRYNQKFKDRFTISVDKSKNTLYLQMNSLRAEDTAVYYCARGIYFYGTTYFDYWGQGTLVTVSS
VL: DIQMTQSPSSLSASVGDRVTITCRASKTISKYLAWYQQKPGKAPKLLIYSGSTLQSGVPSRFSGSGSGTDFTLTISSLQPEDFATYYCQQHNEYPLTFGQGTKVEIK
notes: HuIgG1 mutant, human IgG1; Kabat numbering
Mutant EC50/HuIgG1 EC50 (rhesus CD11a [7]): 0.3 ratio | Var.EC50/HuIgG1 EC50 (human CD11a [8]): 147 ratio | Mutant EC50/HuIgG1 EC50 (human CD11a [6]): 147 ratio | Var.EC50/HuIgG1 EC50 (rhesus CD11a [9]): 0.3 ratio | fold improvement in binding over HuIgG1 (rhesus CD11a [10]): 3 fold

B4: HuIgG1 mutant AspH54Asn (antibody, V domains shown)
VH: EVQLVESGGGLVQPGGSLRLSCAASGYSFTGHWMNWVRQAPGKGLEWVGMIHPSNSETRYNQKFKDRFTISVDKSKNTLYLQMNSLRAEDTAVYYCARGIYFYGTTYFDYWGQGTLVTVSS
VL: DIQMTQSPSSLSASVGDRVTITCRASKTISKYLAWYQQKPGKAPKLLIYSGSTLQSGVPSRFSGSGSGTDFTLTISSLQPEDFATYYCQQHNEYPLTFGQGTKVEIK
notes: as for B3
Mutant EC50/HuIgG1 EC50 (rhesus CD11a [7]): 0.1 ratio | Mutant EC50/HuIgG1 EC50 (human CD11a [6]): 26 ratio | fold improvement in binding over HuIgG1 (rhesus CD11a [10]): 10 fold

B5: HuIgG1 mutant AspH54Gln (antibody, V domains shown)
VH: EVQLVESGGGLVQPGGSLRLSCAASGYSFTGHWMNWVRQAPGKGLEWVGMIHPSQSETRYNQKFKDRFTISVDKSKNTLYLQMNSLRAEDTAVYYCARGIYFYGTTYFDYWGQGTLVTVSS
VL: DIQMTQSPSSLSASVGDRVTITCRASKTISKYLAWYQQKPGKAPKLLIYSGSTLQSGVPSRFSGSGSGTDFTLTISSLQPEDFATYYCQQHNEYPLTFGQGTKVEIK
notes: HuIgG1 mutant, human IgG1; Kabat numbering; also called AspH54 change to Gln
Mutant EC50/HuIgG1 EC50 (rhesus CD11a [7]): 4.4 ratio | Mutant EC50/HuIgG1 EC50 (human CD11a [6]): 20 ratio

B6: HuIgG1 mutant H2A1 (antibody, V domains shown)
VH: EVQLVESGGGLVQPGGSLRLSCAASGYSFTGHWMNWVRQAPGKGLEWVGMIAPADSETRYNQKFKDRFTISVDKSKNTLYLQMNSLRAEDTAVYYCARGIYFYGTTYFDYWGQGTLVTVSS
VL: DIQMTQSPSSLSASVGDRVTITCRASKTISKYLAWYQQKPGKAPKLLIYSGSTLQSGVPSRFSGSGSGTDFTLTISSLQPEDFATYYCQQHNEYPLTFGQGTKVEIK
notes: as for B3
Var.EC50/HuIgG1 EC50 (human CD11a [8]): 10.8 ratio | Var.EC50/HuIgG1 EC50 (rhesus CD11a [9]): 0.013 ratio | Var.EC50/HuIgG1 EC50 (human CD11a [11]): 10.8 ratio | fold improvement in binding over HuIgG1 (rhesus CD11a [10]): 77 fold | Var.EC50/HuIgG1 EC50 (rhesus CD11a [12]): 0.013 ratio

B7: HuIgG1 mutant H2C11 (antibody, V domains shown)
VH: EVQLVESGGGLVQPGGSLRLSCAASGYSFTGHWMNWVRQAPGKGLEWVGMIAPASSNTRYNQKFKDRFTISVDKSKNTLYLQMNSLRAEDTAVYYCARGIYFYGTTYFDYWGQGTLVTVSS
VL: DIQMTQSPSSLSASVGDRVTITCRASKTISKYLAWYQQKPGKAPKLLIYSGSTLQSGVPSRFSGSGSGTDFTLTISSLQPEDFATYYCQQHNEYPLTFGQGTKVEIKR
Var.EC50/HuIgG1 EC50 (human CD11a [11]): 24.9 ratio | fold improvement over EC50 of HuIgG1 for rhesus CD11a (rhesus CD11a [13]): 240 to 415 fold | fold weaker than EC50 of HuIgG1 for human CD11a (rhesus CD11a [13]): 3 to 5 fold | EC50 (rhesus CD11a [10]): 0.11 nM | Var.EC50/HuIgG1 EC50 (rhesus CD11a [12]): 0.002 ratio
